How the values were obtained:
Assay in all cases: crystal structure
[1] = target: HIV-1 (M) CA R120 (arginine restored at CA position 120) (HIV-1 group M)
[2] = target: HIV-1 (M-group) CA Q50Y, disulfide-stabilised hexamer construct (A14C, E45C, Q50Y, W184A, M185A) (HIV-1 group M)
[3] = target: HIV-1 (O-group) CA, disulfide-stabilised hexamer construct (A14C, E45C, W185A, M186A) (HIV-1 group O)
[4] = target: SIVcpz CA, disulfide-stabilised hexamer construct (P14C, E45C, W184A, M185A) (SIVcpz (SIVcpzPtt))
[5] = target: SIVmac CA, disulfide-stabilised hexamer construct (P13C, E44C, W182A, M183A) (SIVmac)

## HIV-1 (M) CA R120 (arginine restored at CA position 120) (natural protein)
[1]
  stoichiometry N: 6

## HIV-1 (M-group) CA Q50Y, disulfide-stabilised hexamer construct (A14C, E45C, Q50Y, W184A, M185A) (natural protein)
[2]
  stoichiometry N: 6

## HIV-1 (O-group) CA, disulfide-stabilised hexamer construct (A14C, E45C, W185A, M186A) (natural protein)
[3]
  stoichiometry N: 6

## SIVcpz CA, disulfide-stabilised hexamer construct (P14C, E45C, W184A, M185A) (natural protein)
[4]
  stoichiometry N: 6

## SIVmac CA, disulfide-stabilised hexamer construct (P13C, E44C, W182A, M183A) (natural protein)
[5]
  stoichiometry N: 6

Reference: publication doi:10.1101/2022.01.21.477263
